Reference: paper PMC12711577

Key:
[1] = molecular target: DDM1 N terminus (1–148) with K102E and K120E (Arabidopsis thaliana) (UniProt Q9XFH4); assay: pull-down; in vitro pulldown of recombinant CDCA7α N terminus (1-136) with DDM1 N terminus (1-148); blots quantified, averages of nine (CDCA7α mutations) and five (DDM1 mutations) replicates
[2] = molecular target: DDM1 N terminus (1–148) (Arabidopsis thaliana) (UniProt Q9XFH4); assay: as above
[3] = molecular target: T1, CDCA7α N terminus (1–136); assay: pull-down (GST pulldown, anti-His western blot, quantified); conditions: chain shown with the change; n = 5 pulldown replicates; parent: est. 98; read off a plot
T1 chain: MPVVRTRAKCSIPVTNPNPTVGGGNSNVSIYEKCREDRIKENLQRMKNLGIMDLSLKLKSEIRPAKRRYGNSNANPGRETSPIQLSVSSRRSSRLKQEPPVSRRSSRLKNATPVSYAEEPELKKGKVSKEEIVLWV

Work on “CDCA7α N terminus (1–136) (domain or fragment)” yielded a loss of binding relative to the WT [1] of 50 % loss.

With “CDCA7α N terminus (1–136) with E32K, E41K, E61K and I62A (domain or fragment)” the binding relative to the WT [2] was 50 % of the WT.

B1: DDM1 N terminus (1–148), Q9XFH4 K102E; K120E; F116A; I124A (protein)
chain: MVSLRSRKVIPASEMVSDGKTEKDASGDSPTSVLNEEENCEEKSVTVVEEEILLAKNGDSSLISEAMAQEEEQLLKLREDEEKANNAGSAVAPNLNETQFTELDELLTQTQLYSEALLEEMEDATINGIESESQKAEPEKTGRGRKRK
In the case of B1, the response [3] is reported as 4.
